From patent US20140044713A1 (KONINKLIJKE NEDERLANDSE AKADEMIE VAN WETENSCHAPPEN, published 2014)
Each block holds one binder with its values, some of them ahead of it.

Columns and labels:
control Lgr7 = target: T1, control Lgr7 (Homo sapiens (Human), UniProt Q9HBX9 1-757); experiment: HEK293T cells transfected with the tagged Lgr, incubated with Rspo1-Fc, protein G immunoprecipitation, anti-FLAG Western blot
T1 construct: not shown: the sister constructs are FH-tagged
T1 sequence: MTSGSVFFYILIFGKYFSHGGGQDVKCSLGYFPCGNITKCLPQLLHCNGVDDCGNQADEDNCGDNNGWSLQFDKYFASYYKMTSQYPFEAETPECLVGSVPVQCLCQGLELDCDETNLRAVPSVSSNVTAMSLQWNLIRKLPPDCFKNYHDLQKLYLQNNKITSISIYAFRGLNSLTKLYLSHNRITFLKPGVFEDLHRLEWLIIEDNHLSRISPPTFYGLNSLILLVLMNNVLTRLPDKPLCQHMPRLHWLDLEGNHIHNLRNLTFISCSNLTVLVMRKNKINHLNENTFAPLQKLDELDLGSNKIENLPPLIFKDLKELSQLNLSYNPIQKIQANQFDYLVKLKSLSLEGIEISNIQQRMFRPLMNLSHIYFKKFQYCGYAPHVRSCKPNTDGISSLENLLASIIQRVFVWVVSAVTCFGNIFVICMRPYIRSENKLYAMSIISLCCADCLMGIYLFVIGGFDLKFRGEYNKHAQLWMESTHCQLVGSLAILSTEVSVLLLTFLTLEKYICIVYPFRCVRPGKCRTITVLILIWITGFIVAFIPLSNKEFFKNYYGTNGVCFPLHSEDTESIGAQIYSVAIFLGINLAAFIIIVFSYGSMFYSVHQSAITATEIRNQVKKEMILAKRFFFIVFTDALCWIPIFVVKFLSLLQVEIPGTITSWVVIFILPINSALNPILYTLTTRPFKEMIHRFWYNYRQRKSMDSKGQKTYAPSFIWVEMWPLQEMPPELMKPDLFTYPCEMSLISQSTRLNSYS
Excerpt: FIG. 7A: Rspondin1 binds to Lgr4, Lgr5 and Lgr6. […] Bottom: Input of tagged proteins.

tagged Frizzled5 (Frz5) = target: T2, tagged Frizzled5 (Frz5) (UniProt Q13467 27-585, limits assumed); experiment: Rspo1-Fc pull-down (proteinG beads) from transfected HEK293T cells, FLAG western blot
T2 construct: whole, on cells; also called double-tagged Frizzled5; Frz5 bait; not shown: FLAG/HA tag
T2 sequence (Q13467 27-585 limits assumed): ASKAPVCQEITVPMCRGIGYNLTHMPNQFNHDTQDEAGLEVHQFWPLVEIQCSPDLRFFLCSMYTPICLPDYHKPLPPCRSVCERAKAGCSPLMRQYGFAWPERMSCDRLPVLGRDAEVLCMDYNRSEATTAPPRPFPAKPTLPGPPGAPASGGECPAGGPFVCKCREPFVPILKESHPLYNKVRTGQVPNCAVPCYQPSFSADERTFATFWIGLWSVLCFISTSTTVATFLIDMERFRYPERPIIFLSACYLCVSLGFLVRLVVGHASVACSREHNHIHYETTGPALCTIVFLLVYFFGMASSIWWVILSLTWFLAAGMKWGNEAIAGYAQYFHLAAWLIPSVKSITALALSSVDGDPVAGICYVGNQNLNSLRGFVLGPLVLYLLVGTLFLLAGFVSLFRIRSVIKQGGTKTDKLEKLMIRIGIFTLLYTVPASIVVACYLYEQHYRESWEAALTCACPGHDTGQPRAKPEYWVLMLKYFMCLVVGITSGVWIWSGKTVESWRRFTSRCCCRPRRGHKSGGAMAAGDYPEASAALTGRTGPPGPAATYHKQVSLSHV

[1] = target: T3, Lgr5 ΔN (deletion of the extreme N-terminus of Lgr5, amino acids 28-50) (UniProt O75473 22-907); experiment: right panels: incubation with Rspo1 after cell lysis, FLAG immunoprecipitation, anti-hIgG-Fc Western blot
T3 construct: whole, on cells; Deletion construct
T3 sequence (looked up): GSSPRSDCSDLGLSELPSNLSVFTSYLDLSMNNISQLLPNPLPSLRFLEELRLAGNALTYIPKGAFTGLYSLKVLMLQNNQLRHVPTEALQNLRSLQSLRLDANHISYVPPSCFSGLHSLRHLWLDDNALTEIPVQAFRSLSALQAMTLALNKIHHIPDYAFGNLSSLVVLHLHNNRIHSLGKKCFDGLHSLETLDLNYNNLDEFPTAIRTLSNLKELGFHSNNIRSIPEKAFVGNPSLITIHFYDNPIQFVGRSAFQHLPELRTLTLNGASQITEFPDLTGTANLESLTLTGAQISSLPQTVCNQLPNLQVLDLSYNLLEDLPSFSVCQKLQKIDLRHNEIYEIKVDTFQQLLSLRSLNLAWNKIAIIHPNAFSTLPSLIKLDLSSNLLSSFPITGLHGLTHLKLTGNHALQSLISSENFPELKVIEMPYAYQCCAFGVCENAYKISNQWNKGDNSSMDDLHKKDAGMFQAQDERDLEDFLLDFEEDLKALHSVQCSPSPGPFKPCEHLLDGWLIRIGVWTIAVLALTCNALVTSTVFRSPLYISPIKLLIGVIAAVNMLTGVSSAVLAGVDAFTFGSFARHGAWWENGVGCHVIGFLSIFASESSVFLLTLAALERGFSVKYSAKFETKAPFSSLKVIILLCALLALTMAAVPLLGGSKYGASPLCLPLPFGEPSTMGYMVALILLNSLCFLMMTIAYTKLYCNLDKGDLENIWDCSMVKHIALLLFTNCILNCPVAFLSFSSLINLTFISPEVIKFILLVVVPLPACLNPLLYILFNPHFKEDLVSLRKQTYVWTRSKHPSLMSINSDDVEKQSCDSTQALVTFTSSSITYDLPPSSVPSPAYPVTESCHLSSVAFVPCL

[2] = target: T4, Lgr5 ΔLRR1-17 (deletion of N-terminus and entire LRR region) (UniProt O75473 22-907); experiment: as above
T4 construct: whole, on cells; Deletion construct
T4 sequence (looked up): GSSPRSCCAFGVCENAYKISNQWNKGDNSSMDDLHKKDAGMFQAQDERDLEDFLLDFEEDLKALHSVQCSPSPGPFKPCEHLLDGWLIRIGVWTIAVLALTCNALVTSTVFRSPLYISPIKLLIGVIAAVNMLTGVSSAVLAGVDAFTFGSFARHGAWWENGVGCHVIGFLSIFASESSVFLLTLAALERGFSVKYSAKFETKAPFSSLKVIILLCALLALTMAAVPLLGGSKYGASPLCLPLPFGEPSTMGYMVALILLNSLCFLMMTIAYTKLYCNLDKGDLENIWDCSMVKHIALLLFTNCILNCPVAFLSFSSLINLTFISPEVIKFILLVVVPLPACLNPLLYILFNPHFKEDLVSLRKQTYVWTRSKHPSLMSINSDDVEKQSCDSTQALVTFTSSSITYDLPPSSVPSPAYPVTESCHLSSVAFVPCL

[3] = target: T5, LGR5-478 (exo domain of LGR5 without the CRL region) (UniProt O75473 22-478); experiment: gel filtration of purified proteins
T5 construct: domain: exo domain of LGR5 without the CRL region; Purified protein
T5 sequence (looked up): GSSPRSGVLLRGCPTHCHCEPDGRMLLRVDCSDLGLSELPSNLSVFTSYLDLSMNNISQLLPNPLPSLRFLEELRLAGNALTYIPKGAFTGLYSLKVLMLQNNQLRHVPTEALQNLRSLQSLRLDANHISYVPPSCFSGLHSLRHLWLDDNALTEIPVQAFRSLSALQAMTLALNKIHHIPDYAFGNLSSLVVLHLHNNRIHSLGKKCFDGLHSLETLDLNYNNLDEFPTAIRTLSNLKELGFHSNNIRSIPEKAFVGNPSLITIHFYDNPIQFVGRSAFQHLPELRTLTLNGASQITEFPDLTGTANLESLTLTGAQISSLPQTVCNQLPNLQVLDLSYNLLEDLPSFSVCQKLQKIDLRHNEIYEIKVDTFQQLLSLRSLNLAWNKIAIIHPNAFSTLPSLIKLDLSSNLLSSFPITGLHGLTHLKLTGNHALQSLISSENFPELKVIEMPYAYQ

binding result (control Lgr7): no binding (tested: ~1 µg/ml)
binding result (tagged Frizzled5 (Frz5)): no binding (tested: ˜1 µg/ml)
binding result [1]: no binding
binding result [2]: no binding
B1: Rspo1-Fc fusion protein (Fc fusion)
chain: SRGIKGKRQRRISAEGSQACAKGCELCSEVNGCLKCSPKLFILLERNDIRQVGVCLPSCPPGYFDARNPDMNKCIKCKIEHCEACFSHNFCTKCKEGLYLHKGRCYPACPEGSSAANGTMECSSPAQCEMSEWSPWGPCSKKQQLCGFRRGSEERTRRVLHAPVGDHAACSDTKETRRCTVRRVPCPEGQKRRKGGQGRRENANRNLARKESKEAGAGSRRRKGQQQQQQQGTVGPLTSAGPA
notes: also called Rspondin1 IgFc fusion protein; not shown: Fc (IgFc) part

binding result [3]: no binding
B2: antibody 1D9 (antibody, V domains shown)
VH: EVKLQESGAALVKPGASVKLSCKASGYTFTDYYIHWVKQSHGKSLEWIGYINPNSGYTNYNEKFKSKATLTVDKSTNTAYMELSRLTSEDSATYYCTRFGSYWYFDFWGQGTTVTVSS
VL: MTQSPTSMSISIGDRVTMNCKASQNVDSNVDWYQQKTGQSPKLLIYKASNRYTGVPDRFTGSGSGTDFTFTISNMQAEDLAVYYCMQSNSYPLTFGSGTKLEIKR
notes: Rat monoclonal antibody against human Lgr5; hybridoma LMBP 6961CB; also called Ab1; 1D9 A5
